Source: patent US7001748B2, “Methods of making polyketides using hybrid polyketide synthases” (The Board of Trustees of the Leland Stanford Junior …, priority 1999, dated 2006)

Target: T1, (5)M2+TE (Saccharopolyspora erythraea, UniProt Q03131+Q03133)
T1 construct: a single module of the DEBS PKS fused to the thioesterase (TE) termination region of module 6; made in house; host or cells: E. coli BL21(DE3); ACP4(4) from pNW8 (pET28a), phosphopantetheinylated in vitro with Sfp
Experiment: Labeling of holo-ACP4(4) with 14C-2a mediated by (5)M2+TE (back-transfer)
Assay type: biochemical
Settings: presence and absence of (5)M2+TE
Experimental: Labeling of Holo-ACP4(4) with ^14C-2a Mediated by (5)M2+TE. Holo-ACP4(4) (20 μM) was incubated with 1 mM [1-^14C]-labeled 2a (custom synthesized by Amersham Pharmacia, specific activity 55 mCi/mmol) and 1 μM (5)M2+TE in reaction buffer C for 10 min at 30° C. The protein was precipitated with 75% acetone/H2O for 5 min at −80° C. After washing the pellet with 6.25% (w/v) TCA to remove excess salts followed by 500 μL of 75% acetone/H2O to remove residual, unbound 14 C-2a, the precipitated protein was resuspended in 8 μL of buffer A and 4 μL of SDS sample buffer, and resolved on a 4-20% SDS-PAGE gradient gel (Bio-Rad). The proteins were visualized with Coomassie blue stain and dried, and the radioactivity was detected either on a Packard InstantImager or by exposing the gel to X-ray film.

B1: holo-ACP4(4): DEBS ACP4 catalytic domain with its natural C-terminal linker, phosphopantetheinylated (protein)
chain: HHHHHHNVVDRLAGRSESDQVAGLAELVRSHAAAVSGYGSADQLPERKAFKDLGFDSLAAVELRNRLGTATGVRLPSTLVFDHPTPLAVAEHLRDRLFAASPAVDIGDRLDELEKALEALSAEDGHDDVGQRLESLLRRWNSRRADAPSTSAISEDASDDELFSMLDQRFGGGEDL
modifications: non-natural residues
notes: DEBS ACP4 catalytic domain with its natural C-terminal linker, phosphopantetheinylated
radiolabeling of ACP by 14C-2a: radiolabeled only in the reaction containing (5)-M2+TE
